Reference: patent publication US5783384, “Selection of binding-molecules” (President and Fellows of Harvard College)

Molecular target: T1, GCN4 basic region peptide with 3-residue linker (monomeric) (UniProt P03069 SEQ:1-24)
T1 chain: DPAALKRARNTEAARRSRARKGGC
Assay: EMSA; disulfide-tethered complex, reduction gel shift with 2-ME or DTT, pH 7.5 or 8.5; outcome only in figure
Conditions: protein: synthetic; tags: synthetic peptide, disulfide-tethered to DNA through linker thiol
Description: To test if the reduction potential of the disulfide bond corresponds to the affinity of the peptide for the adjacent DNA sequence, wild-type and mutant double-stranded DNA-peptide complexes were incubated in the presence of reducing agents 2-mercaptoethanol (2-ME) or dithiothreitol (DTT). (FIG. 4) The free (lower bands) vs. coupled DNA molecules (upper bands) were resolved on 20% nondenaturing polyacrylamide gel after. The wild-type peptide-DNA complex (wt) was consistently more resistant to reduction than the complex having mutation in either peptide (L, P) or DNA sequence (M3). Peptide-DNA complexes differ with respect to the gel mobility as well. The mutant complexes (L, P, M3) have lower gel mobility than the wild-type complex (wt), although the corresponding free (uncomplexed) DNA molecules run at the same speed.
Annealing of the oligonucleotide-peptide complex with the complementary oligonucleotide was done as described above, in the binding buffer of the same composition and desired pH (7.5 or 8.5). 2-ME or DTT was added and reactions were incubated at defined temperature in a water bath. Glycerol-running dye mixture was added (final concentration of glycerol is 5%) and reactions were loaded on 20% nondenaturing gel and run at low voltage (up to 120 V) for 16–24 hours at room temperature. (See FIG. 4).

B1: WT GCN4 half-site 39-mer (dsDNA)
DNA 1: AAGGTTAAACGTGCAAGTCATCGGTATAGGTCGAGAAGT
DNA 2: ACTTCTCGACCTATACCGATGACTTGCACGTTTAACCTT
modifications: N6-thioalkyl-dA adjacent to the half-site (disulfide tether)
B1: binds.
